Assay results taken from patent publication US20220144960A1 (NANJING LEGEND BIOTECH, published 2022).
Where a chain is given by its changes, count along the chain named. Where two headings read alike, the source gives them in different places.

B1: AS47863 sdAb (VHH)
VHH: QVQLEESGGGSVQAGETLRLSCTASGSTFGDSDMGWYRQAPGNACELVSIISSDGRTYYVDSVKGRFTISQDNAVSTVYLQMNSLKPEDTGVYYCAADLRQYCRDGRCCGYWGQGTQVTVSS
notes: Camel sdAb
B2: AS48433 sdAb (VHH)
VHH: B1 VHH with V2I, E5V, K86N, Q101L, Y102N
notes: Camel sdAb
B3: AS48542dil-bbz CAR (other)
chain: QMQLVESGGGSVQAGETLRLSCTTSAFTFDGPDMAWYRQAPGNECVLVSIISADGRTYYADSVKGRFTISRDNAKNTVFLNLNSLQPEDTAVYYCALDPRKNCRGGYCCANWGPGTQVTVSSGGGGSGGGGSGGGGSQMQLVESGGGSVQAGETLRLSCTTSAFTFDGPDMAWYRQAPGNECVLVSIISADGRTYYADSVKGRFTISRDNAKNTVFLNLNSLQPEDTAVYYCALDPRKNCRGGYCCANWGPGTQVTVSSTTTPAPRPPTPAPTIASQPLSLRPEACRPAAGGAVHTRGLDFACDIYIWAPLAGTCGVLLLSLVITLYCKRGRKKLLYIFKQPFMRPVQTTQEEDGCSCRFPEEEEGGCELRVKFSRSADAPAYKQGQNQLYNELNLGRREEYDVLDKRRGRDPEMGGKPRRKNPQEGLYNELQKDKMAEAYSEIGMKGERRRGKGHDGLYQGLSTATKDTYDALHMQALPPR
B4: AS48463 sdAb (VHH)
VHH: QVHLMESGGGSVQAGETLRLSCTASGFTFANSDMGWYRQAPGNACELVSIISSHGGTTYYVDSVKGRFTISRHNAENTVYLRMTSLKPEDTALYYCVADPRSNCRGGYCCGYWGPGTQVTVSS
notes: Camel sdAb
B5: AS48542 sdAb (VHH)
VHH: QMQLVESGGGSVQAGETLRLSCTTSAFTFDGPDMAWYRQAPGNECVLVSIISADGRTYYADSVKGRFTISRDNAKNTVFLNLNSLQPEDTAVYYCALDPRKNCRGGYCCANWGPGTQVTVSS
notes: Camel sdAb
B6: AS48508 sdAb (VHH)
VHH: EVQLVESGGGSVQAGGSLRLSCTASRFTFDGPDMAWYRQAPGNACELVSIISADGRTYYTDSVKGRFTISRDNAKNTVFLYLNSLQPEDTAVYYCAPDPRRNCRGGYCCGNWGPGTQVTVSS
notes: Camel sdAb
B7: AS53750 sdAb (VHH)
VHH: B6 VHH with S11L, A14P, R26G, F29D, Q39R, A44E, Y107D
notes: Camel sdAb
B8: AS48542bbz CAR (other)
chain: QMQLVESGGGSVQAGETLRLSCTTSAFTFDGPDMAWYRQAPGNECVLVSIISADGRTYYADSVKGRFTISRDNAKNTVFLNLNSLQPEDTAVYYCALDPRKNCRGGYCCANWGPGTQVTVSSTTTPAPRPPTPAPTIASQPLSLRPEACRPAAGGAVHTRGLDFACDIYIWAPLAGTCGVLLLSLVITLYCKRGRKKLLYIFKQPFMRPVQTTQEEDGCSCRFPEEEEGGCELRVKFSRSADAPAYKQGQNQLYNELNLGRREEYDVLDKRRGRDPEMGGKPRRKNPQEGLYNELQKDKMAEAYSEIGMKGERRRGKGHDGLYQGLSTATKDTYDALHMQALPPR
B9: AS54233 sdAb (VHH)
VHH: QVQLVESGGGSVQAGETLRLSCTASGFTFDGPDMAWYRQAPGNECELVSIISADGRTYYTDSVKGRFTASQDNAKNTVSLYLKSLQPEDTAVYYCAADPRRNCRGNCCGNWGPGTQVTVSS
notes: Camel sdAb
B10: AS53574-AS48542bil-bbz CAR (other)
chain: QVKLVESGGGSVQAGGSLRLSCAASGYIYSSNCMGWFRQAPGKEREWVARIHTGSGSTYYADSVKGRFTISQDNAKNTVYLQMNSLRPEDTAMYDCAAGRVVLGAVVCTNEYWGQGTQVTVSSGGGGSGGGGSGGGGSQMQLVESGGGSVQAGETLRLSCTTSAFTFDGPDMAWYRQAPGNECVLVSIISADGRTYYADSVKGRFTISRDNAKNTVFLNLNSLQPEDTAVYYCALDPRKNCRGGYCCANWGPGTQVTVSSTTTPAPRPPTPAPTIASQPLSLRPEACRPAAGGAVHTRGLDFACDIYIWAPLAGTCGVLLLSLVITLYCKRGRKKLLYIFKQPFMRPVQTTQEEDGCSCRFPEEEEGGCELRVKFSRSADAPAYKQGQNQLYNELNLGRREEYDVLDKRRGRDPEMGGKPRRKNPQEGLYNELQKDKMAEAYSEIGMKGERRRGKGHDGLYQGLSTATKDTYDALHMQALPPR
B11: AS48542dis-bbz CAR (other)
chain: QMQLVESGGGSVQAGETLRLSCTTSAFTFDGPDMAWYRQAPGNECVLVSIISADGRTYYADSVKGRFTISRDNAKNTVFLNLNSLQPEDTAVYYCALDPRKNCRGGYCCANWGPGTQVTVSSGGGGSQMQLVESGGGSVQAGETLRLSCTTSAFTFDGPDMAWYRQAPGNECVLVSIISADGRTYYADSVKGRFTISRDNAKNTVFLNLNSLQPEDTAVYYCALDPRKNCRGGYCCANWGPGTQVTVSSTTTPAPRPPTPAPTIASQPLSLRPEACRPAAGGAVHTRGLDFACDIYIWAPLAGTCGVLLLSLVITLYCKRGRKKLLYIFKQPFMRPVQTTQEEDGCSCRFPEEEEGGCELRVKFSRSADAPAYKQGQNQLYNELNLGRREEYDVLDKRRGRDPEMGGKPRRKNPQEGLYNELQKDKMAEAYSEIGMKGERRRGKGHDGLYQGLSTATKDTYDALHMQALPPR

Assays:
rhesus CD30 ECD = target: T1, rhesus CD30 ECD (rhesus, UniProt P28908 19-379 (human entry)); assay: ELISA on rhesus CD30 ECD protein; member of the group by paragraph 437
T1 construct: Produced in house; also called recombinant rhesus CD30; rhesus CD30 protein
T1 chain: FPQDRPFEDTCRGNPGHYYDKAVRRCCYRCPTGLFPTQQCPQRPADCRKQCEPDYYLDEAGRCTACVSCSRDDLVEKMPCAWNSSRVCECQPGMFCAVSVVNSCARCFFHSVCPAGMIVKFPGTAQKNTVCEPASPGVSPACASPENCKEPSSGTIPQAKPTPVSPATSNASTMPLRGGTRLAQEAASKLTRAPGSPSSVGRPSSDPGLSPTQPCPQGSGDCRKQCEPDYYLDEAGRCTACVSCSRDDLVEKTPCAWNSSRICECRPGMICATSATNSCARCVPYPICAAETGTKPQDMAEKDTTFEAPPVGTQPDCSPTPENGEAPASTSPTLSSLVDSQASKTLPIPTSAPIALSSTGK

[1] = target: T2, recombinant human CD30 extra cellular domain (ECD) protein (human, UniProt P28908 19-379); assay: SPR Biacore T200, His-tagged sdAb/Fab captured, 100.0 nM human CD30 as analyte, single curve
T2 construct: Bought from R&D systems; also called rhCD30; human CD30 ECD
T2 sequence: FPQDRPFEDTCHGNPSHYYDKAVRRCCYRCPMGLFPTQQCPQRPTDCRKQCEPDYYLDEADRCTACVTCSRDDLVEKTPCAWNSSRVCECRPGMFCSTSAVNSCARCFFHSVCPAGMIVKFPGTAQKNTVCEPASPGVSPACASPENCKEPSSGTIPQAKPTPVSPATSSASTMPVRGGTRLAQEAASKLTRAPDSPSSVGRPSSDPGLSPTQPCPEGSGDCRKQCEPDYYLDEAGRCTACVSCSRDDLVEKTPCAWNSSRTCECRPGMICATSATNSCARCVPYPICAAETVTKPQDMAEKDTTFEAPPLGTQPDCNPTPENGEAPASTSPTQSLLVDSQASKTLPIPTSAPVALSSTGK
Protocol: Some of these unique binders were subjected to for further characterization by surface plasmon resonance (SPR) on a BIAcore T200 instrument (GE Healthcare). The experiment was carried out as follows. The crude sdAb/Fab proteins were captured through an affinity tag (6×Histidine tag) onto the sensorchip. High-concentration (100.0 nM) of human CD30 (R&D systems, Cat. #6126-CD) flowed over the sensorchip surface, and were allowed to bind the antibody fragments for 300 s followed by injection of the running buffer to allow dissociation of the complex. On-rate ([…] and off-rate (kd) were roughly calculated based on one association and dissociation curve, and were used to estimate the equilibrium dissociation constant (KD). 5F11 scFv (SEQ ID NO:216, prepared according to WO2017066122) was used as a positive control. Data were summarized in Table 3 below. The first 10 antibodies in Table 3 were sdAbs with amino acid sequence ID numbers summarized in Table 1, the last antibody was 5F11 scFv, and the remainings were human Fabs with CDR and scFv amino acid sequence ID numbers in Table 2.

[2] = target: T3, human CD30 CRD6 (E282-K379) Fc fusion protein with human IgG1 Fc fragment at the C terminus (human); assay: ELISA on the CD30 fragment CRD6, absorbance OD 450 nm; sdAb concentration not given
T3 construct: also called CRD6 construct

[3] = target: T4, CD30 on CD30-expressing tumor cell lines (HH, MJ, H9) (UniProt P28908 19-595); assay: cell-based or functional assay
T4 sequence (looked up): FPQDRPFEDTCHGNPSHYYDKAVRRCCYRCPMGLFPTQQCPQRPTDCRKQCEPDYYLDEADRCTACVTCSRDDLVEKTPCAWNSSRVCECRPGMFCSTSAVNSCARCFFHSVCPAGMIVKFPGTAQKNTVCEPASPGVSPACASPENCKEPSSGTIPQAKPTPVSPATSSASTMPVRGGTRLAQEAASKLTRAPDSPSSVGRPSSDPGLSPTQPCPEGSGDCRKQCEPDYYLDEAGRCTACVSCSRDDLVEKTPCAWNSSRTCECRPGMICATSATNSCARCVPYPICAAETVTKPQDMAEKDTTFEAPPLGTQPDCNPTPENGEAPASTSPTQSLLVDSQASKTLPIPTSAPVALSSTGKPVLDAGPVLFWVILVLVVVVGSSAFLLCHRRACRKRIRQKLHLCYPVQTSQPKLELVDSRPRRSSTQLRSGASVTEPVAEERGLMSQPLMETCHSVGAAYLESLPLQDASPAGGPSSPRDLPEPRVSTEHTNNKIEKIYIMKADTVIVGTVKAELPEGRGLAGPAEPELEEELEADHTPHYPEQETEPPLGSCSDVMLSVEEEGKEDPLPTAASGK

[4] = target: T4, CD30 on CD30-expressing tumor cell …; assay: cell-based or functional assay; remark: listed apart in the source
[5] = target: T4, CD30 on CD30-expressing tumor cell …; assay: cell-based or functional assay; remark: listed apart in the source

T3 sequence (chain, as listed by the source limits assumed): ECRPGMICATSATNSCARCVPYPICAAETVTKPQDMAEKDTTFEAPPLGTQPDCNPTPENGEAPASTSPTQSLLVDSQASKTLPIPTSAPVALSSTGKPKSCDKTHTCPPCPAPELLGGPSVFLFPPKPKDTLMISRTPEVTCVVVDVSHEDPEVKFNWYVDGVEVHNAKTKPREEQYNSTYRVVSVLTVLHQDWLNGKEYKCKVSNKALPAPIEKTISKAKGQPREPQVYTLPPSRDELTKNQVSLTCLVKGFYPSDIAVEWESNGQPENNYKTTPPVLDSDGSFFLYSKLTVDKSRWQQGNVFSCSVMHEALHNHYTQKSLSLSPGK

Binder | binding result (rhesus CD30 ECD) | Kd [1] [nM] | koff [1] [s⁻¹] | kon [1] [M⁻¹ s⁻¹] | rhCD30 Binding (RU) [1] [RU] | binding result [2] | % H9 cell lysis E:T = 5:1 (LDH assay, CAR T cells) [3] [%] | % MJ cell lysis E:T = 1:1 (LDH assay, CAR T cells) [3] [%] | % MJ cell lysis E:T = 0.5:1 (LDH assay, CAR T cells) [4] [%] | % H9 cell lysis E:T = 2:1 (LDH assay, CAR T cells) [5] [%] | % MJ cell lysis E:T = 1:1 (LDH assay, CAR T cells) [5] [%]
B1 | binds | 29 | 0.0042 | 140000 | 119 | binds | – | – | – | – | –
B2 | binds | 25 | 0.0023 | 93000 | 83.5 | binds | – | – | – | – | –
B3 | – | – | – | – | – | – | 84 | 64.3 | – | – | –
B4 | binds | 30 | 0.01 | 340000 | 106 | binds | – | – | – | – | –
B5 | binds | 19 | 0.0024 | 120000 | 60.8 | binds | – | – | – | – | –
B6 | binds | 31 | 0.0061 | 200000 | 69.8 | binds | – | – | – | – | –
B7 | binds | 130 | 0.0069 | 56000 | 284 | binds | – | – | – | – | –
B8 | – | – | – | – | – | – | 64 | 58.5 | 58.4 | 50 | 55
B9 | binds | 76 | 0.0046 | 61000 | 59.2 | binds | – | – | – | – | –
B10 | – | – | – | – | – | – | 54 | 60.5 | – | – | –
B11 | – | – | – | – | – | – | 81 | 56.4 | – | – | –
